Results reported in US20250189530A1 (STCUBE, published 2025).
Substitutions are numbered along the chain they refer to. Like-named read-outs stand apart in the source and are kept apart here. Each block holds one molecule with its values, some of them ahead of it.

Key:
BTN1A1 Peptide 4 [1] = biological target: T1, BTN1A1 Peptide 4 (human); experiment: ELISA clone screen, STCube, negative control
T1 construct: also called BTN1A1-pep4- WT; Pep4
T1 peptide: EVEVGDRTDWAIGVC

hBTN1A1 ICD [2] = biological target: T2, hBTN1A1 ICD (human, UniProt Q13410 270-526); experiment: ELISA clone screen, STCube, negative control
T2 sequence: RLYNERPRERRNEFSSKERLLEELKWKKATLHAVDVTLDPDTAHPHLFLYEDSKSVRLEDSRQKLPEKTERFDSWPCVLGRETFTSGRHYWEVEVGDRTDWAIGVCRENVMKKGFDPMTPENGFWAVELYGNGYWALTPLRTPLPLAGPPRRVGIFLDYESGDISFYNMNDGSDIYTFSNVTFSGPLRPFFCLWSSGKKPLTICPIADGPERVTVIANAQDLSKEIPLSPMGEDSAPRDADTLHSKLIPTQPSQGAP

denatured hBTN1A1 ICD [3] = biological target: T3, denatured hBTN1A1 ICD (human, UniProt Q13410 270-526); experiment: ELISA clone screen, STCube, negative control
T3 construct: Same protein as hBTN1A1 ICD, denatured before the ELISA; also called hBTN1A1 ICD denatured; Denatured ICD
T3 sequence: T2 sequence

BTN1A1 Peptide 4 [4] = biological target: T1, BTN1A1 Peptide 4; experiment: ELISA clone screen, GenScript, negative control
hBTN1A1 ICD [5] = biological target: T2, hBTN1A1 ICD; experiment: ELISA clone screen, GenScript, negative control
denatured hBTN1A1 ICD [6] = biological target: T3, denatured hBTN1A1 ICD; experiment: ELISA clone screen, GenScript, negative control
ECD1 Peptide = biological target: T4, ECD1 Peptide; experiment: ELISA clone screen
T4 construct: also called BTN1A1 ECD1
T4 peptide: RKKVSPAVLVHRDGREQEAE

hBTN1A1-His [7] = biological target: T5, hBTN1A1-His (human, UniProt Q13410); experiment: ELISA clone screen
T5 construct: also called human BTN1A1-His
T5 sequence (antigen, looked up): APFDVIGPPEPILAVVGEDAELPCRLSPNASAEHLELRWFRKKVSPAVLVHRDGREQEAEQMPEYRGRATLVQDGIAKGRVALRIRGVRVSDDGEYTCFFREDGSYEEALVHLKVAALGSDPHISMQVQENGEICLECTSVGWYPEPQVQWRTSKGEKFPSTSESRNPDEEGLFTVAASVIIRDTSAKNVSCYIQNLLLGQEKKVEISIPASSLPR

KLH Only = KLH Only (keyhole limpet); experiment: ELISA clone screen
KLH Only (keyhole limpet), sequence (Q10583 17-3414): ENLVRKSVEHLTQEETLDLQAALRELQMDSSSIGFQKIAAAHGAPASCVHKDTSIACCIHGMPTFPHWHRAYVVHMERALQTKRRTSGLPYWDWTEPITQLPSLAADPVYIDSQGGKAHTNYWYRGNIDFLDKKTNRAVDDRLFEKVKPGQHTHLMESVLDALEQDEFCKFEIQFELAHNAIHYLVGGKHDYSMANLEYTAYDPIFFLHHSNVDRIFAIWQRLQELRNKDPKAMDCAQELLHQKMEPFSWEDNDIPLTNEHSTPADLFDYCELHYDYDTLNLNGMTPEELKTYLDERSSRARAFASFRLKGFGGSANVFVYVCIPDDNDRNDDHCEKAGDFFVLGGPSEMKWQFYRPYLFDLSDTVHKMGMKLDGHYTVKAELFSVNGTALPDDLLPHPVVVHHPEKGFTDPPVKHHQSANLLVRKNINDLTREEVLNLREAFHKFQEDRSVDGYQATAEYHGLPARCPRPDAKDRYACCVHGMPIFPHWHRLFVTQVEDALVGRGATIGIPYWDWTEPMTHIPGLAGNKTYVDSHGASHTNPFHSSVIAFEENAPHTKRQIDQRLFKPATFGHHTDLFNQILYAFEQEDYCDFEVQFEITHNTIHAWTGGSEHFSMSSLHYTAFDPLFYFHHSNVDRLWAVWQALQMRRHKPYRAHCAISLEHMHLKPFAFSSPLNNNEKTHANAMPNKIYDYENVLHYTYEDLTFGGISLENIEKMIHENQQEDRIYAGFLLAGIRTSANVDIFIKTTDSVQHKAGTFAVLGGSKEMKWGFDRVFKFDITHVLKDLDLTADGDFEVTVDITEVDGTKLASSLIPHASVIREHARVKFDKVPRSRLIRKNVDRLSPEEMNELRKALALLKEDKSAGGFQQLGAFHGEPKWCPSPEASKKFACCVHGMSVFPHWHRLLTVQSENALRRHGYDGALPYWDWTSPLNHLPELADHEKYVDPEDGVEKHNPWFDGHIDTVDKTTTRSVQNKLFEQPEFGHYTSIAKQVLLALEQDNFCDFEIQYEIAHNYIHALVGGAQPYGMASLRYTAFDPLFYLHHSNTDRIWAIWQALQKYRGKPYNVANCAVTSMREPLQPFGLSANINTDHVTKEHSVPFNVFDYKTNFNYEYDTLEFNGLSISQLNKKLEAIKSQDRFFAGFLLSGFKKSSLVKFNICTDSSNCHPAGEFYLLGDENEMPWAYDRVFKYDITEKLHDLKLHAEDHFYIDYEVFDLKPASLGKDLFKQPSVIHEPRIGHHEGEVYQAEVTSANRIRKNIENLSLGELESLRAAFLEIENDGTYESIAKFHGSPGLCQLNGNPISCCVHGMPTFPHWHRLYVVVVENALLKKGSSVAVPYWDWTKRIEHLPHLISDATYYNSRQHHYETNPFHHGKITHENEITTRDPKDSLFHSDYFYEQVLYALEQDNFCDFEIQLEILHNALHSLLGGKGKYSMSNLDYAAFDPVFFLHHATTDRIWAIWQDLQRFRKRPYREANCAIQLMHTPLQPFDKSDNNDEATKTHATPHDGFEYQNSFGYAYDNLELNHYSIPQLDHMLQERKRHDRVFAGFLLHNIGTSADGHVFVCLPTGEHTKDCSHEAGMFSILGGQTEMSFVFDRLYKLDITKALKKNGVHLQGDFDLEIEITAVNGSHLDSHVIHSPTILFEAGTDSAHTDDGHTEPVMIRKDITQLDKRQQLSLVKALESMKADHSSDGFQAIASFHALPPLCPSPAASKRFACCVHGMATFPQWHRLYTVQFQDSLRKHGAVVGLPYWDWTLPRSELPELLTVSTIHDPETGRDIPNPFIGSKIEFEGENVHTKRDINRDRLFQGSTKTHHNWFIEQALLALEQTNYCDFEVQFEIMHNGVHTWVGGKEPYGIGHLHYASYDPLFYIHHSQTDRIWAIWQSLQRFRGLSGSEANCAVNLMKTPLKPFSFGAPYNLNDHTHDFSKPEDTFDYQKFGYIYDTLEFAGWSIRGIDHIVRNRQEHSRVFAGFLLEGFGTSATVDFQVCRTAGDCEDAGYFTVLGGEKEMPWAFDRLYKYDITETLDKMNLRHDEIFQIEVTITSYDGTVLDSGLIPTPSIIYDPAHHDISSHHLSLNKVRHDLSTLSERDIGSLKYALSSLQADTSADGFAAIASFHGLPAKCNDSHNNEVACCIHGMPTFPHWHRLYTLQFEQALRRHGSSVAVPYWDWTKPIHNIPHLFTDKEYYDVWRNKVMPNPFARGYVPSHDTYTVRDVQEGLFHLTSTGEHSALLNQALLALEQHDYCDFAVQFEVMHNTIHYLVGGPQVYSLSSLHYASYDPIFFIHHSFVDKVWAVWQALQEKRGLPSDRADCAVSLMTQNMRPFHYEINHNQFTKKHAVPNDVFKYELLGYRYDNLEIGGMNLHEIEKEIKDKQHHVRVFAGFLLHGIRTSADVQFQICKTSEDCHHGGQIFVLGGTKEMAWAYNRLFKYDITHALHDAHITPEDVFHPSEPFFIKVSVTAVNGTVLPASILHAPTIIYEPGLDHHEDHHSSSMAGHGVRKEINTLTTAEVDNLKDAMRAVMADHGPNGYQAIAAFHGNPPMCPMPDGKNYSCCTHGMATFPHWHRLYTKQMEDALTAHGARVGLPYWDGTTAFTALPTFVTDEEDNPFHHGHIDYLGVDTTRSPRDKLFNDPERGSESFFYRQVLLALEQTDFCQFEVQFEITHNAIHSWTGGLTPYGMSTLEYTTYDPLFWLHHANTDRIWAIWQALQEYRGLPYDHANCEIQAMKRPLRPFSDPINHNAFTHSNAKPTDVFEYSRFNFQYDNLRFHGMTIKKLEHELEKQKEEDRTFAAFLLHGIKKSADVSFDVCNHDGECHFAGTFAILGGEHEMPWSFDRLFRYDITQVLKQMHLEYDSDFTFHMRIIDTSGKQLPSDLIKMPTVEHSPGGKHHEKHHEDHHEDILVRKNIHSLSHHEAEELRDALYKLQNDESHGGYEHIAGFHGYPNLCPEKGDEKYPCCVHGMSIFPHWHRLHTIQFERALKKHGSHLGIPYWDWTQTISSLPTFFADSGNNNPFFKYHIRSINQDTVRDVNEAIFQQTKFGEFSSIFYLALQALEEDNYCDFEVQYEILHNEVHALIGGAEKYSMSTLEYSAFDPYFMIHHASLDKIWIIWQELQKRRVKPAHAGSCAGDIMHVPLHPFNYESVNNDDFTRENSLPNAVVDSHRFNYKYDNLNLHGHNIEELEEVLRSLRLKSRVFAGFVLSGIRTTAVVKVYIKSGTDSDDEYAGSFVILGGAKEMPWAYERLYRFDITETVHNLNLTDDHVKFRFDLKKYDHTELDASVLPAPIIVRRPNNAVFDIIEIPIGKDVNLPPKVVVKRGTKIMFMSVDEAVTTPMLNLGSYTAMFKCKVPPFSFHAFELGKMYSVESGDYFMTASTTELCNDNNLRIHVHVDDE

hBTN1A1-His [8] = biological target: T5, hBTN1A1-His; experiment: ELISA, titration of purified antibody
hBTN1A1-His [9] = biological target: T5, hBTN1A1-His; experiment: ELISA, titration of purified antibody; remark: listed apart in the source

ELISA signal (BTN1A1 Peptide 4 [1]): 0.048 | ELISA signal (hBTN1A1 ICD [2]): 0.04 | ELISA signal (denatured hBTN1A1 ICD [3]): 0.041 | ELISA signal (BTN1A1 Peptide 4 [4]): 0.074 | ELISA signal (hBTN1A1 ICD [5]): 0.063 | ELISA signal (denatured hBTN1A1 ICD [6]): 0.062
Molecule: Negative (control of the clone screen ELISA)

O.D. 450 nm (ECD1 Peptide): 3.18 | O.D. 450 nm (hBTN1A1-His [7]): 2.91 | O.D. 450 nm (KLH Only): 0.051 | EC50 (read off the curve) (hBTN1A1-His [8]): ~0.02 µg/mL
B1: STC85F1-1 (antibody, V domains shown)
VH: QSLEESGGRLVTPGGSLTLTCTVSGIDLSRYGVNWVRQAPGKGLEWIGYIGTTSNTYYASWAKGRFTISKTSSTTVDLKMTSLTTEDTATYFCARSVVSPSNSSFWGQGTLVTVSS
VL: DPVMTQTPSSTSAAVGGTVTINCQSSQSVYNNKNLSWFQQKPGQPPKLLIYRASTLPSGVPSRFKGSGSGTQFTLTISDLECDDAATYYCAGGYSGDINVFGGGTEVVVK
notes: From immunized New Zealand rabbits; IgG heavy chain and Kappa light chain; Variable domains without signal peptide; also called clone #85F1-1

O.D. 450 nm (ECD1 Peptide): 2.66 | O.D. 450 nm (hBTN1A1-His [7]): 2.1 | O.D. 450 nm (KLH Only): 0.052 | EC50 (read off the curve) (hBTN1A1-His [9]): ~0.02 µg/mL
B2: STC43G3-1 (antibody, V domains shown)
VH: QSLEESGGRLVTPGTPLTLTCTVSGIDLSRYGVNWVRQAPGKGLEWIGYIGTTGNTYYASWVNGRFTISKTSTTVELKMTSLTAADTATYFCARSVVSPSNSSFWGQGTLVTVSS
VL: B1 VL with K33N, T55K, S62P, K65S, D79S, L80V, E81Q, Y89F
notes: From immunized New Zealand rabbits; IgG heavy chain and Kappa light chain; Variable domains without signal peptide; also called clone #43G3-1
